Data from the DeepSol protein solubility set.

Assay: soluble on expression in E. coli; label from the status in PepcDB or PDB records

Soluble on expression in E. coli, soluble:
MLCDSLPTASRTAAAILNLAQREDVTAEALAQLIQTDPALTGRILRFANAPAQGTRRPVASVIDAIDLVGLPAVRQFALSLSLIDAHREGRCEAFDYAAYWQKSLARAVALQSITAQASTVAPKEAFTLGLLADVGRLALATAWPEEYSECLRKADGEALIALERERFATDHDELTRMLLTDWGFPQVFIDALQLSQQDEIRDEGRTGRFARQLALAQHIADHRLAEEPRRAALSPLLRAEARRCGLGDEDLARLLADPPADWLDWTRTIGLPGDAPTGGAEPSRPPPQTDEKLHVLLADDDPIMLARLSRQLEADGHHVASRRDGETALAYALEHQPEMVITDWHMKPMNGLELCRALRESALGGNVYIVMLTASESEDALVEAFGAGIDDYVIKPPSVRVLKARIRAGQRIITLHKKLARERKEIERYSSELAAANRRLELMAHTDQLTGLPNRRYAMDRLEREWAQARTFDRPLSIMMLDLDWFKSINDSLGHDAGDQALVHAARVMRETVRTSDVVCRMGGEEFLIIIPDTAGPAAIQTAERVRSAVEQQQPAKLKLSRPLTASIGVADSTSAPSLKDLLLKADNALYQVKQNGRNGVRYAGLAAALEHHHHHH
MSLDYHKQFIGELSQVSYHIIGYGSYYEEALIKYLGESIERYATVIAGDLLSDRIVYASYNELKLLHKVMPLEYLQVFTQEQIALSCDLQMMMCDKMVTENDVLGWVKCPMFFEDAEMYVPAQMLCVGYKTNETVGERRIIPGFSTGTASHKTLEAAMCNSLIEYIQIDSMMLSWYTKKPCPKIIVDDPDIEVILEEARLGKDSLYDIIPIDMTVGEDNPLYTFGIILKNKYDEGPYLLFGVQAGLDPKHALLRGIMEASAISYSYYYNLLYQKASLANIECEEPLFLDLDSNVFYYAHPKDQDHKWKAFEPLISGEVLLSDLEDHSGKDKKEDLKTLLAYAKKVSPNAVFLDITPPEALEKGWYVTRVLMPELLEMCIPAFPFANHPRMRQFGGVTNAFVHPMPEGHHHHHH
MAHHHHHHMGTLEAQTQGPGSMIGITQAEAVLTIELQRPERRNALNSQLVEELTQAIRKAGDGSARAIVLTGQGTAFCAGADLSGDAFAADYPDRLIELHKAMDASPMPVVGAINGPAIGAGLQLAMQCDLRVVAPDAFFQFPTSKYGLALDNWSIRRLSSLVGHGRARAMLLSAEKLTAEIALHTGMANRIGTLADAQAWAAEIARLAPLAIQHAKRVLNDDGAIEEAWPAHKELFDKAWGSQDVIEAQVARMEKRPPKFQGA
GEIYDEHDEVEAVQTLDNNTWLVLPNVKAAFFFNKWIKRDLVKSKNMTIQRYLASFENDGLNTQNKLETPWFIAEAIVDSENPEQIRYEIRKKSDVVD
MNNTPKLKLGIVAVSRDCFPMELSENRRKAVVDAYNGEIFECLTTVENEKDMRKALKEVKSAGVNALVVYLGNFGPETPETLIAKEFDGPVMFAAAAEERGDNLVNGRGDAYCGMLNASYNLALRNINAYIPEYPVGTASDVANMINEFVPVATALIGLKNLKIISFGPRPQDFLACNAPIKQLYNLGVEIEENSELDLFASFNEHENDSRIPDVVKDMEEELGEGNKMPGILPKLAQYELTLLDWAEEHKGSREYVVFANKCWPAFQTQFGCVPCYVNSRLTARGIPVSCEVDIYGALSEYIGTCVSQDVVTLLDINNTVPKDMYESEIKSKFNYTLKDTFMGFHCGNTAACKLTSGTMKNQMIMARALEPNQEPNITRGTLEGDIVPGEITFFRLQSNADSELTAYVAEGEVLPVKTRSFGSIGVFAIPQMGRFYRHVLIENRFPHHGAVAFGHFGKAIYNLFRYLGVKEVGFNRPKEMLYKTENPFELEHHHHHH
MLTQEQIMNALKHVEDPELHKSVVELNMVRNIQMNGTEVKLEVVLTIQGCPLKAKIQQDIEESLHAIGASKVEVTFGSMTQEERAALTEKLKRNTRTETGMPSMLRPDSGVRFITVTSGKGGVGKSTVTINLATALARMGKKVGILDADIYGFSIPAMMETNKKPTMIDQTAIPVISHGVKIMSMGFFTEGNNPVMWRGPMLNKWIQNFLANTHWGELDYLLLDLPPGTGDVAIDVAAMIPQAKEIIVTTPHNIASFVASRVGVMAKHTKHEILGIVENMAYYEEQDGSKNYLFGKGGGEMLAEQLQTEVIAKIPFAKREENNGSSVYDEDSLVGEVFTSLAEDIIYRGLEHHHHHH

Soluble on expression in E. coli, not soluble:
KNYDLIFGDSNTKKYYAQFAKEHKTHLYHQILQSNDEQFRFVENDQTVTSQTPFKS
SKNFNYTISFVGSTSNNKFVSFSNQFYEGPKYYWMSNFPLYPGNPGVLQRIEEGERIGNFYTFQYAGLDDNGGWLIYSKDGEVIPIDKGTDEDKRVVGNGLPKFTMSVTHTFRCKNLDLNLYFRGNLGYQIYDVHDLYYGLQDAAPNTNVLESAYKENRKITTGKNVHSSYFVHNGDFMKLDVATLGYTWNINNKWVEKARFYITGRNLFTISGYHRGLDKDAYCVNGMEPGLPYSKNGYYPSSRQFLFGIQLNF
MEWFGIGAGTLRQGDRADFAVIDPTHLDESVDGYHEEAVPYYGGLRRMVNRNDATVVATGVGGTVVFRGGQFGGQFRLEHHHHHH
MFMNKPFGSKRCEPFHESEHLCEAFAITEAILARYQRGKRSFTSSEKSGLAALIKRIPYDILVEVLDQSGFTPTSNATPPVDYLAMMEHTMTHGASITHALQYLNDLMTKCTGCPGIRTYYHNPNDDVLADPVHDTAALIDETTAVGKSVVTKQYLNIAGAHYIPLIHGDIVVGCVEVPRFSGNLEKLPSFPSLIRAVTCTAHKFIEEARINWNREKAEAMLQMATRLARDNLDETVLASSIMNTVKSLTESARCSLFLVKDDKLEAHFEDGNVVSIPKGTGIVGYVAQTGETVNIVDAYADDRFNREVDKATGYRTKTILCMPVMYEGTIVAVTQLINKLDLTTESGLRLPRVFGKRDEELFQTFSMFAGASLRNCRINDRLLKEKKKSDVILDVVTVLSNTDIRDVDGIVRHALHGAKKLLNADRSTLFLVDKERNELCSRMADSVAGKEIRFPCGQGIAGTVAASGVGENIQDAYQDPRFNREVDKQLGYRTQTILCEPIILNGEILAVVQLVNKLDTSGEVTVFTEDDRDTFRVFSLFAGISINNSHLLEFAVKAGREVMELNEHRATLFNKNVPSRAVKRVTAITKVEREAVLVCELPSFDVTDVEFDLFRARESTDKPLDVAAAIAYRLLLGSGLPQKFGCSDEVLLNFILQCRKKYRNVPYHNFYHVVDVCQTIHTFLYRGNVYEKLTELECFVLLITALVHDLDHMGLNNSFYLKTESPLGILSSASGNTSVLEVHHCNLAVEILSDPESDVFDGLEGAERTLAFRSMIDCVLATDMAKHGSALEAFLASAADQSSDEAAFHRMTMEIILKAGDISNVTKPFDISRQWAMAVTEEFYRQGDMEKERGVEVLPMFDRSKNMELAKGQIGFIDFVAAPFFQKIVDACLQGMQWTVDRIKSNRAQWERVLETRLSTSSGNNSSTR
MSLKAANRYVAGEKRSDGLAIARKLQAKGYGISLENIGENTKLLAQCREAKMEFDQLIEDVGAIAPGQTVSFDLSHIGLSYQFDTAYGHLIELAEKANEHEVTLMISMEESTKTDQILAVYRQAAELYSNIGITLQAHLFRTPDDLRKLVQLPGKIRIVKGAYQEPSHLAMERSDYLNNRYLELVDHLVSTNHPVSVATHDQKLLEEMERRQFLQSTDVEIEMLYGIQPSQLKLFKEKGYQTRVYLTYGHEWFLYLCHRLAEYPENIYTALIDIINPSLPKVDDMYEGHHHHHH
MAHHHHHHMNTHVISVGSRWVHHEVTQALRQRRGVRVEVNEELQHCDFASRASSVLYCDAHSAEMQRDQASLVLRLQEARQRCGTQPVILMVRMDSDNEVSLERLSWLNLECGVAQQCGLILVWSLDDAVQYLASLAAYAVTSLEFTGAARPYVGDAPLPVLVDALTQTPQVVTRNDVVRIANRKTSVADALMSEASEWEGIAGLGRKKAARLQHLFRTPFLSSQQRIDSFVPATGGSSFSTASKAAESHLSQPTGESTARPTEALSVDTAVTTEGRRRMMSALQQRLDKEDEEGGE
MGSDKIHHHHHHMTFMPEKRNADLLFRGFSKTRLMVITLIAVNGPMTVTQLSKVIKTTRSNLYQAIKEMVSDGILVQTRTVSEKNYVEKFYDINTDLFDAIKYGDIRKAIEEMDEDKLRNILYSFLRSASAILSIMAEQVNLSNKDDLDKYVDYVRKNLLIISFSTHSTKDMSKFSSMLSNFFTEIDDDNDEKKDEHLLYIVGFPILNQMGFISKSRHEKLTGDGKE
